In patent US20200140512A1 (Xencor, published 2020):

Experiments:
human PD-1-His [1] = target: T1, human PD-1-His (human, UniProt Q15116 25-167, limits assumed); assay: Octet, antibody on AHC biosensors, multiple concentrations of PD-1-His
T1 construct: not shown: His tag

human PD-1-His [2] = target: T1, human PD-1-His; assay: Octet (Example 7A, told again)
[3] = target: T2, PD-1 (antigen of the Octet affinity measurements of Example 9 and of the affinities quoted afterwards) (UniProt Q15116 25-167, limits assumed); assay: Octet affinity screen, bivalent IgG1 format
T2 construct: most likely human PD-1-His
T2 sequence (Q15116 25-167 limits assumed): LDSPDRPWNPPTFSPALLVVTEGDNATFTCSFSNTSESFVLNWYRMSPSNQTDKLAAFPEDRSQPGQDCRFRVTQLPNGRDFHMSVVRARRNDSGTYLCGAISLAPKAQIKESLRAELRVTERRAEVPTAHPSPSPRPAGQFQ

human PD-1-His [4] = target: T1, human PD-1-His; assay: Octet, antibody captured on anti-human Fc (AHC) biosensors, dipped into multiple concentrations of PD-1-His

T1 sequence (Q15116 25-167 limits assumed): as above

Row | Binder | fold improved affinity over WT [3] [fold] | binding result (human PD-1-His [4]) | further results
1 | XENP28519 (bivalent mAb based on humanized mAb A) (antibody, human IgG1, kappa, V domains shown, also called anti-PD-1 mAb XENP28519) VH: QVQLQESGPGLVKPSQTLSLTCTVSGHSITSDYAWNWIRQPPGKKLEWIGYISYSGYTTYNPSLKSRVTISRDTSKNQFSLKLSSVTAADTAVYFCARDLDYGPWFAYWGQGTLVTVSS VL: DIQMTQSPSSLSASVGDRVTITCRASENIHNYLAWYQQKPGKSPKLLVYNVKTLADGVPSRFSGSGSGTDYTLTISSLQPEDFATYYCQHFWSSPWTFGGGTKVEIKR |  |  | binding result (human PD-1-His [1]): binds
2 | XENP28536 (bivalent mAb based on humanized mAb C, mAb C[PD-1]_H1L1) (antibody, human IgG1, V domains shown, also called WT) VH: EVQLVESGGGLVQPGGSLRLSCAASGFTFSSFGMHWVRQAPGKGLEWVSYISSGSSIIYYADSVKGRFTISRDNAKNSLYLQMNSLRAEDTAVYYCARGGRLVWSPDYWGQGTLVTVSS VL: DIVMTQSPDSLAVSLGERATINCKSSQSLLNSGNQKNYLTWYQQKPGQPPKLLIYWASTRESGVPDRFTGSGSGTDFTLTISSLQAEDVAVYYCQNDYSYPFTFGSGTKLEIK |  |  | binding result (human PD-1-His [2]): binds
3 | mAb C[PD-1]_H1_L1.1 (bivalent IgG1 format with E233P/L234V/L235A/G236_/S267K ablation variants) (antibody, V domains shown, Human IgG1 with ablation variants; copies: 2 + 2) VH: EVQLVESGGGLVQPGGSLRLSCAASGFTFSSFGMHWVRQAPGKGLEWVSYISSGSSIIYYADSVKGRFTISRDNAKNSLYLQMNSLRAEDTAVYYCARGGRLVWSPDYWGQGTLVTVSS VL: DIVMTQSPDSLAVSLGERATINCKSSQSLLHSGNQKNYLTWYQQKPGQPPKLLIYWASTRESGVPDRFTGSGSGTDFTLTISSLQAEDVAVYYCQNDYSYPFTFGSGTKLEIKR | 2 |  | 
4 | mab_C[PD-1]_H1_L1.3 (bivalent IgG1 format with E233P/L234V/L235A/G236_/S267K ablation variants) (antibody, V domains shown, Human IgG1 with ablation variants; copies: 2 + 2) VH: EVQLVESGGGLVQPGGSLRLSCAASGFTFSSFGMHWVRQAPGKGLEWVSYISSGSSIIYYADSVKGRFTISRDNAKNSLYLQMNSLRAEDTAVYYCARGGRLVWSPDYWGQGTLVTVSS VL: DIVMTQSPDSLAVSLGERATINCKSSQSLLSSGNQKNYLTWYQQKPGQPPKLLIYWASTRESGVPDRFTGSGSGTDFTLTISSLQAEDVAVYYCQNDYSYPFTFGSGTKLEIKR | > 2 |  | 
5 | XENP28538 (humanized variant of anti-PD-1 mAb C, bivalent human IgG1) (antibody, V domains shown, Human IgG1 with E233P/L234V/L235A/G236del/S267K) VH: EVQLVESGGGLVKPGGSLRLSCAASGFTFSSFGMHWVRQAPGKGLEWVGYISSGSSIIYYADPVKGRFTISRDNSKNTLYLQMNSLKTEDTAVYYCARGGRLVWSPDYWGQGTLVTVSS VL: DIVMTQSPDSLAVSLGERATINCKSSQSLLNSGNQKNYLTWYQQKPGQPPKLLIYWASTRESGVPDRFTGSGSGTDFTLTISSLQAEDVAVYYCQNDYSYPFTFGSGTKLEIKR |  | no binding | 
6 | XENP28539 (humanized variant of anti-PD-1 mAb C, bivalent human IgG1) (antibody, V domains shown, Human IgG1 with E233P/L234V/L235A/G236del/S267K) VH: EVQLVESGGGLVKPGGSLRLSCAASGFTFSSFGMHWVRQAPGKGLEWVGYISSGSSIIYYADPVKGRFTISRDNSKNTLYLQMNSLKTEDTAVYYCARGGRLVWSPDYWGQGTLVTVSS VL: DIVMTQSPLSLPVTPGEPASISCRSSQSLLNSGNQKNYLTWYLQKPGQPPQLLIYWASTRESGVPDRFTGSGSGTDFTLKISRVEAEDVGVYYCQNDYSYPFTFGSGTKLEIKR |  | no binding | 
